We go through five molecules from publication PMC3510010.

Where two headings read alike, the source gives them in different places.

Experiment in all cases: F-EMSA
(Mobility shift assays separate free from complexed probe on a gel.)

Data set [1] has as its target T1, GLD-1(135-336) (Caenorhabditis elegans, UniProt Q17339 135-336).
T1 sequence: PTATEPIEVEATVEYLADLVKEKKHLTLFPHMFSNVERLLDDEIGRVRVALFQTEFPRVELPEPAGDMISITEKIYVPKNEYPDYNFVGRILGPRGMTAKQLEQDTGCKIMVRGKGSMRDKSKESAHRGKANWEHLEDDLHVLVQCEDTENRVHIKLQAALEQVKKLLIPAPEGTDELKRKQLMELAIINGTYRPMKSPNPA

In another data set the target is POS-1-RBD (80-180) (Caenorhabditis elegans, UniProt G5EF15 80-180).
Sequence of POS-1-RBD (80-180) (G5EF15 80-180): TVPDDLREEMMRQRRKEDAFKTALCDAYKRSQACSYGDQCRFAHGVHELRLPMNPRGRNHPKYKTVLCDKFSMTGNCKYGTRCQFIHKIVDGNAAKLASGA
Another data set has as its target T2, SPN-4-RBD (Caenorhabditis elegans, UniProt G5EF02 50-135).
T2 sequence: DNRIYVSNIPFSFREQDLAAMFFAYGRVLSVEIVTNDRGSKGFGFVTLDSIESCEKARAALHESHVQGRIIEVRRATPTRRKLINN

Data set [2] addresses T3, POS-1(1-206) (Caenorhabditis elegans, UniProt G5EF15 1-206).
In data set [3] the target is T1, GLD-1(135-336). The source holds these as a separate data set.
Data set [4] has as its target T3, POS-1(1-206). This is another data set of the same source.
The target in data set [5] is T3, POS-1(1-206). This is another data set of the same source.
For data set [6], the target named is T3, POS-1(1-206). This is another data set of the same source.
Data set [7] deals with T1, GLD-1(135-336). The source holds these as a separate data set.

T3 sequence (G5EF15 1-206): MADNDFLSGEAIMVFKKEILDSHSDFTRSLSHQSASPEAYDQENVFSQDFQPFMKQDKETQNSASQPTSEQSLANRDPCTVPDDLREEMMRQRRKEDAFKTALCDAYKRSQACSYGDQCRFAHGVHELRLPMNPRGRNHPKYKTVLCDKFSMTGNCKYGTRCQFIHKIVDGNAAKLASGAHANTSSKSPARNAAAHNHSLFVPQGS

What is called Kd is a measure of binding affinity in units of concentration. Lower therefore signals higher affinity. With UUUUUCUUAUUCUAGACUAAUAUUGUAAGCU (ssRNA) [glp-1 WT], the Kd in the data set with GLD-1(135-336) [1] was found to be 0.07 ± 0.01 µM; in the data set with POS-1-RBD (80-180), 0.03 ± 0.017 µM; in the data set with POS-1(1-206) [2] it was 0.019 ± 0.002 µM. Moreover, the binding result with SPN-4-RBD is listed as “no binding”.

Regarding UUUUUCUUAUUCUAGACUAACCCUGUAAGCU (ssRNA) [∆3′ PRE], the dissociation constant (Kd) with GLD-1(135-336) [3] is 0.025 ± 0.003 µM; with POS-1(1-206) [4], 0.053 ± 0.001 µM.

For the molecule UUUUUCUUAUUCUAGACCAAUAUUGUAAGCU (ssRNA) [∆GBM], in the data set with POS-1(1-206) [5], the dissociation constant (Kd) was determined as 0.021 ± 0.001 µM.

For UUUUUCUCCCUCUAGACUAAUAUUGUAAGCU (ssRNA) [∆5′ PRE], the results for the Kd in the data set with GLD-1(135-336) [3] and with POS-1(1-206) [6] were 0.033 ± 0.007 µM and 0.055 ± 0.004 µM, respectively.

UUUUUCUCCCUCUAGACUAACCCUGUAAGCU (ssRNA) [∆5′ 3′ PRE]: the Kd with GLD-1(135-336) [7] is 0.02 ± 0.003 µM; with POS-1(1-206) [5] it was 0.31 ± 0.02 µM.
